The values that follow come from paper PMC4669772, “The conserved Trp114 residue of thioredoxin reductase 1 has a redox sensor-like function triggering oligomerization and crosslinking upon oxidative stress related to cell death” (Cell Death & Disease, 2015).

Data set [1] deals with the molecule itself. Nature of the data set: SEC; propensity of purified recombinant rat TrxR1 variants to form oligomers (Supplementary Figure S8); oligomers separated on Superdex G200 at 4 °C.
Data set [2] concerns the molecule itself. Nature of the data set: native gel or EMSA; purified recombinant TrxR1 tetramers, native PAGE under reducing conditions.
Data set [3] concerns the molecule itself. Nature of the data set: native gel or EMSA; purified recombinant TrxR1 tetramers, native PAGE under oxidized (non-reducing) conditions; dimers to tetramer.

B1: recombinant rat TrxR1 W114E (enzyme)
chain: MNDSKDAPKSYDFDLIIIGGGSGGLAAAKEAAKFDKKVMVLDFVTPTPLGTRWGLGGTCVNVGCIPKKLMHQAALLGQALKDSRNYGWKLEDTVKHDWEKMTESVQNHIGSLNEGYRVALREKKVVYENAYGKFIGPHKIMATNNKGKEKVYSAERFLIATGERPRYLGIPGDKEYCISSDDLFSLPYCPGKTLVVGASYVALECAGFLAGIGLDVTVMVRSILLRGFDQDMANKIGEHMEEHGIKFIRQFVPTKIEQIEAGTPGRLKVTAKSTNSEETIEDEFNTVLLAVGRDSCTRTIGLETVGVKINEKTGKIPVTDEEQTNVPYIYAIGDILEGKLELTPVAIQAGRLLAQRLYGGSTVKCDYDNVPTTVFTPLEYGCCGLSEEKAVEKFGEENIEVYHSFFWPLEWTVPSRDNNKCYAKVICNLKDNERVVGFHVLGPNAGEVTQGFAAALKCGLTKQQLDSTIGIHPVCAEIFTTLSVTKRSGGDILQSGCUG
modifications: selenocysteine (Sec, U) at 498
notes: thioredoxin reductase 1, rat, with Trp114 changed to Glu; also called Glu114; source: E. coli BL21 (DE3) gor-, purified (2'5'-ADP Sepharose, Superdex G200 size exclusion)
As for B1, the binding result in data set [1] is listed as “binds”.

B2: recombinant rat thioredoxin reductase 1 (TrxR1), wild type (enzyme)
chain: MNDSKDAPKSYDFDLIIIGGGSGGLAAAKEAAKFDKKVMVLDFVTPTPLGTRWGLGGTCVNVGCIPKKLMHQAALLGQALKDSRNYGWKLEDTVKHDWEKMTESVQNHIGSLNWGYRVALREKKVVYENAYGKFIGPHKIMATNNKGKEKVYSAERFLIATGERPRYLGIPGDKEYCISSDDLFSLPYCPGKTLVVGASYVALECAGFLAGIGLDVTVMVRSILLRGFDQDMANKIGEHMEEHGIKFIRQFVPTKIEQIEAGTPGRLKVTAKSTNSEETIEDEFNTVLLAVGRDSCTRTIGLETVGVKINEKTGKIPVTDEEQTNVPYIYAIGDILEGKLELTPVAIQAGRLLAQRLYGGSTVKCDYDNVPTTVFTPLEYGCCGLSEEKAVEKFGEENIEVYHSFFWPLEWTVPSRDNNKCYAKVICNLKDNERVVGFHVLGPNAGEVTQGFAAALKCGLTKQQLDSTIGIHPVCAEIFTTLSVTKRSGGDILQSGCUG
modifications: selenocysteine (Sec, U) at 498
notes: thioredoxin reductase 1, rat, expressed from a pET-TRSTER-derived plasmid with pSUABC; FAD-containing homodimer; tetramers (two dimers) were purified from the same preparation in the absence of reductant; In the tetramer two of the four Trp114 are modified (oxidised) and linked; also called WT; wild-type TrxR1; source: E. coli BL21 (DE3) gor-, purified (2'5'-ADP Sepharose, Superdex G200 size …)
Turning to B2, the entries for the “stoichiometry N” value in data set [2] and in data set [3] were 2 and 4, respectively.

B3: recombinant rat TrxR1 W114F (enzyme)
chain: MNDSKDAPKSYDFDLIIIGGGSGGLAAAKEAAKFDKKVMVLDFVTPTPLGTRWGLGGTCVNVGCIPKKLMHQAALLGQALKDSRNYGWKLEDTVKHDWEKMTESVQNHIGSLNFGYRVALREKKVVYENAYGKFIGPHKIMATNNKGKEKVYSAERFLIATGERPRYLGIPGDKEYCISSDDLFSLPYCPGKTLVVGASYVALECAGFLAGIGLDVTVMVRSILLRGFDQDMANKIGEHMEEHGIKFIRQFVPTKIEQIEAGTPGRLKVTAKSTNSEETIEDEFNTVLLAVGRDSCTRTIGLETVGVKINEKTGKIPVTDEEQTNVPYIYAIGDILEGKLELTPVAIQAGRLLAQRLYGGSTVKCDYDNVPTTVFTPLEYGCCGLSEEKAVEKFGEENIEVYHSFFWPLEWTVPSRDNNKCYAKVICNLKDNERVVGFHVLGPNAGEVTQGFAAALKCGLTKQQLDSTIGIHPVCAEIFTTLSVTKRSGGDILQSGCUG
modifications: selenocysteine (Sec, U) at 498
notes: thioredoxin reductase 1, rat, with Trp114 changed to Phe; also called Phe114; source: E. coli BL21 (DE3) gor-, purified (2'5'-ADP Sepharose, Superdex G200 size exclusion)
B3: in data set [1], the binding result is “binds”.

B4: recombinant rat TrxR1 W114G (enzyme)
chain: MNDSKDAPKSYDFDLIIIGGGSGGLAAAKEAAKFDKKVMVLDFVTPTPLGTRWGLGGTCVNVGCIPKKLMHQAALLGQALKDSRNYGWKLEDTVKHDWEKMTESVQNHIGSLNGGYRVALREKKVVYENAYGKFIGPHKIMATNNKGKEKVYSAERFLIATGERPRYLGIPGDKEYCISSDDLFSLPYCPGKTLVVGASYVALECAGFLAGIGLDVTVMVRSILLRGFDQDMANKIGEHMEEHGIKFIRQFVPTKIEQIEAGTPGRLKVTAKSTNSEETIEDEFNTVLLAVGRDSCTRTIGLETVGVKINEKTGKIPVTDEEQTNVPYIYAIGDILEGKLELTPVAIQAGRLLAQRLYGGSTVKCDYDNVPTTVFTPLEYGCCGLSEEKAVEKFGEENIEVYHSFFWPLEWTVPSRDNNKCYAKVICNLKDNERVVGFHVLGPNAGEVTQGFAAALKCGLTKQQLDSTIGIHPVCAEIFTTLSVTKRSGGDILQSGCUG
modifications: selenocysteine (Sec, U) at 498
notes: thioredoxin reductase 1, rat, with Trp114 changed to Gly; also called Gly114; source: E. coli BL21 (DE3) gor-, purified (2'5'-ADP Sepharose, Superdex G200 size exclusion)
Turning to B4, the binding result in data set [1] was “binds”.

B5: recombinant rat TrxR1 W114R (enzyme)
chain: MNDSKDAPKSYDFDLIIIGGGSGGLAAAKEAAKFDKKVMVLDFVTPTPLGTRWGLGGTCVNVGCIPKKLMHQAALLGQALKDSRNYGWKLEDTVKHDWEKMTESVQNHIGSLNRGYRVALREKKVVYENAYGKFIGPHKIMATNNKGKEKVYSAERFLIATGERPRYLGIPGDKEYCISSDDLFSLPYCPGKTLVVGASYVALECAGFLAGIGLDVTVMVRSILLRGFDQDMANKIGEHMEEHGIKFIRQFVPTKIEQIEAGTPGRLKVTAKSTNSEETIEDEFNTVLLAVGRDSCTRTIGLETVGVKINEKTGKIPVTDEEQTNVPYIYAIGDILEGKLELTPVAIQAGRLLAQRLYGGSTVKCDYDNVPTTVFTPLEYGCCGLSEEKAVEKFGEENIEVYHSFFWPLEWTVPSRDNNKCYAKVICNLKDNERVVGFHVLGPNAGEVTQGFAAALKCGLTKQQLDSTIGIHPVCAEIFTTLSVTKRSGGDILQSGCUG
modifications: selenocysteine (Sec, U) at 498
notes: thioredoxin reductase 1, rat, with Trp114 changed to Arg; also called Arg114; source: E. coli BL21 (DE3) gor-, purified (2'5'-ADP Sepharose, Superdex G200 size exclusion)
In the case of B5, the binding result in data set [1] is “binds”.
